Results from patent US20240245796A1 (PROFOUNDBIO US, published 2024).

Tests used:
[1] = molecular target: T1, human FOLR2 extracellular domain linked to His tag (human, UniProt P14207 17-230, limits assumed); assay: BLI, global 1:1 fit (62.5 nM row)
T1 construct: extracellular domain; Antigen in solution in BLI; also called Hu-FRb; not shown: His tag

[2] = molecular target: T2, human FOLR1 extracellular domain linked to His tag (human, UniProt P15328 25-233, limits assumed); assay: BLI, global 1:1 fit (62.5 nM row)
T2 construct: extracellular domain; It may be the same product as m13; also called Hu-FRα; Hu-Ag; not shown: His tag
T2 sequence (P15328 25-233 limits assumed): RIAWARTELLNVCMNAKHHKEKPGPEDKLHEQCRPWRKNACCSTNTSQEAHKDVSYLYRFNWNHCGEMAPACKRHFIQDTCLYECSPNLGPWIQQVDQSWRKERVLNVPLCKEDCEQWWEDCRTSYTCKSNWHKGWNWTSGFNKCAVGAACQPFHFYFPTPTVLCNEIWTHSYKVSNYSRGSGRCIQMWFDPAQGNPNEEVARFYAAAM

[3] = molecular target: T1, human FOLR2 extracellular domain linked …; assay: BLI, global 1:1 fit (125 nM row)
[4] = molecular target: T2, human FOLR1 extracellular domain linked …; assay: BLI, global 1:1 fit (125 nM row)
[5] = molecular target: T1, human FOLR2 extracellular domain linked …; assay: BLI, Ag 250 nM over Ab on anti-hIgG Fc tip
[6] = molecular target: T2, human FOLR1 extracellular domain linked …; assay: BLI, Ag 250 nM over Ab on anti-hIgG Fc tip
[7] = molecular target: T3, mouse FOLR1 extracellular domain linked to His tag (mouse, UniProt P35846 25-232, limits assumed); assay: BLI, global 1:1 fit (62.5 nM row); only the 500 nM response quantifiable
T3 construct: extracellular domain; Antigen in solution in BLI; also called Mouse-Ag; not shown: His tag
T3 sequence (P35846 25-232 limits assumed): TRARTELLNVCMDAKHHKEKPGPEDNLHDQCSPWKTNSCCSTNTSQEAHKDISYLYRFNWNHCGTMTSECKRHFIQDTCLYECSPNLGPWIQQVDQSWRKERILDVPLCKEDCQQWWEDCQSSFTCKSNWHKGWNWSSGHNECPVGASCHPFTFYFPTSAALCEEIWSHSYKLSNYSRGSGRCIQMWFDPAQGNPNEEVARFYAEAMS

[8] = molecular target: T3, mouse FOLR1 extracellular domain linked …; assay: BLI, global 1:1 fit (125 nM row); only the 500 nM response quantifiable
[9] = molecular target: T4, rat FOLR1 extracellular domain linked to His tag (rat); assay: BLI, Ag 62.5 nM; * = below range of quantification
T4 construct: extracellular domain; Antigen in solution in BLI; also called Rat-Ag

[10] = molecular target: T5, cynomolgus monkey FOLR1 extracellular domain linked to His tag (cynomolgus monkey, UniProt A0A2K5U044 25-233); assay: BLI, global 1:1 fit (15.6 nM row)
T5 construct: extracellular domain; Antigen in solution in BLI; It may be the same product as m14; also called Cyno-Ag; not shown: His tag
T5 sequence (A0A2K5U044 entry or part of it): as the sequence (P15328 25-233 limits assumed) above, with I2T, W4R, R37K, A146P, H171Y counted along it

[11] = molecular target: T3, mouse FOLR1 extracellular domain linked …; assay: BLI, Ag 500 nM over Ab on anti-hIgG Fc tip
[12] = molecular target: T5, cynomolgus monkey FOLR1 extracellular …; assay: BLI, Ag 500 nM over Ab on anti-hIgG Fc tip
[13] = molecular target: T2, human FOLR1 extracellular domain linked …; assay: BLI, Ag 500 nM over Ab on anti-hIgG Fc tip
[14] = molecular target: T1, human FOLR2 extracellular domain linked …; assay: BLI, Ag 15.6 nM; * = below range of quantification
[15] = molecular target: T6, human FOLR3 extracellular domain linked to His tag (human, UniProt P41439 23-245, limits assumed); assay: BLI, Ag 15.6 nM; * = below range of quantification
T6 construct: extracellular domain; Antigen in solution in BLI; also called Hu-FRg; not shown: His tag
T6 sequence (P41439 23-245 limits assumed): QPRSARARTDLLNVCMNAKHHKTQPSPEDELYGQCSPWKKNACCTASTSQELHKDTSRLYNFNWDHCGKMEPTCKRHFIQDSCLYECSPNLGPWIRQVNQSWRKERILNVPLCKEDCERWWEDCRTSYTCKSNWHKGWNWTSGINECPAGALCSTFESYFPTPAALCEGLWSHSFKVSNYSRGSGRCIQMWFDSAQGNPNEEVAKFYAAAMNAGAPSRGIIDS

[16] = molecular target: T5, cynomolgus monkey FOLR1 extracellular …; assay: BLI, global 1:1 fit (62.5 nM row)
[17] = molecular target: T2, human FOLR1 extracellular domain linked …; assay: BLI, global 1:1 fit (62.5 nM row); remark: listed apart in the source
[18] = molecular target: T5, cynomolgus monkey FOLR1 extracellular …; assay: BLI, Ag 7.82 nM over Ab on anti-hIgG Fc tip
[19] = molecular target: T2, human FOLR1 extracellular domain linked …; assay: BLI, Ag 7.82 nM over Ab on anti-hIgG Fc tip
[20] = molecular target: T1, human FOLR2 extracellular domain linked …; assay: BLI, global 1:1 fit (31.3 nM row)
[21] = molecular target: T2, human FOLR1 extracellular domain linked …; assay: BLI, global 1:1 fit (31.3 nM row)
[22] = molecular target: T6, human FOLR3 extracellular domain linked …; assay: BLI, global 1:1 fit (31.3 nM row); all responses below quantification
[23] = molecular target: T6, human FOLR3 extracellular domain linked …; assay: BLI, global 1:1 fit (7.82 nM row); all responses below quantification

T1 sequence (P14207 17-230 limits assumed): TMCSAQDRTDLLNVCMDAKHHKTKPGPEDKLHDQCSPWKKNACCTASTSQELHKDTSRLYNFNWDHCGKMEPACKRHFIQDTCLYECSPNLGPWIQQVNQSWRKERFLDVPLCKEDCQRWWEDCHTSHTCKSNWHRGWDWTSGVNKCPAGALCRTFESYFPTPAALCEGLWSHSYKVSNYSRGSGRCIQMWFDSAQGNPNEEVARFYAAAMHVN

B1: F131 (antibody, V domains shown)
VH: EVQLLESGGGVVQPGRSLRLSCAASGFTFSSYGMHWVRQAPGKGLEWVAVISYDGSNKYYADSVKGRFTISRANSKNTLYLQMNSLRAEDTAVYYCARPRAYYGAYGSSFDYWGQGTQVTVSS
VL: EIVMTQSPSSVSASVGDRVAITCRASQGISSWLAWYQQKPGKAPKLLIYAASSLQSGVPSRFSGSGSGTDFTLTISSLQPEDFATYYCQQSYSTPLTFGGGTKVDIK
notes: also called clone F131; F131 mAb
In the case of B1, the Kd [1] is reported as 142 nM, the koff [1] is reported as 0.0784 s⁻¹ and the kon [1] is reported as 552000 M⁻¹ s⁻¹. It also gave a Kd [2] of 5.3 nM, a koff [2] of 0.0012 s⁻¹ and a kon [2] of 226000 M⁻¹ s⁻¹. It also gave a Kd [3] of 142 nM, a koff [3] of 0.0784 s⁻¹ and a kon [3] of 552000 M⁻¹ s⁻¹. The Kd [4] was 5.3 nM, the koff [4] was 0.0012 s⁻¹ and the kon [4] was 226000 M⁻¹ s⁻¹. The Response [5] was 0.0207, the Response [6] was 0.178 and the Kd [7] was 2960 nM. The koff [7] was 0.301 s⁻¹, the kon [7] was 102000 M⁻¹ s⁻¹ and the Kd [8] was 2960 nM. The koff [8] was 0.301 s⁻¹, the kon [8] was 102000 M⁻¹ s⁻¹ and the Response [9] was -0.00606. The Kd [10] was 8.15 nM, the koff [10] was 0.00157 s⁻¹ and the kon [10] was 193000 M⁻¹ s⁻¹. It also gave a Response [11] of 0.0167, a Response [12] of 0.219 and a Response [13] of 0.181. For the same binder, the Response [14] was 0.002, the Response [15] was -0.00261 and the Kd [16] was 8.15 nM. It also gave a koff [16] of 0.00157 s⁻¹, a kon [16] of 193000 M⁻¹ s⁻¹ and a Kd [17] of 1.53 nM. The koff [17] was 0.000338 s⁻¹, the kon [17] was 221000 M⁻¹ s⁻¹ and the Response [18] was 0.0537. For the same binder, the Response [19] was 0.04, the Kd [20] was 142 nM and the koff [20] was 0.0784 s⁻¹. It also gave a kon [20] of 552000 M⁻¹ s⁻¹, a Kd [21] of 5.3 nM and a koff [21] of 0.0012 s⁻¹. The kon [21] was 226000 M⁻¹ s⁻¹, the koff [22] was 0.217 s⁻¹ and the kon [22] was 1660 M⁻¹ s⁻¹. The koff [23] was 0.217 s⁻¹ and the kon [23] was 1660 M⁻¹ s⁻¹.

B2: F131-LD038 (antibody, V domains shown)
VH: B1 VH
VL: B1 VL
modifications: drug-linker LD038 (PB038, maleimide-PEG unit-Val-Cit-PAB-exatecan) on cysteines freed by TCEP reduction; positions not given
notes: Antibody-drug conjugate of F131 (IgG1) with LD038; also called anti-huFOLR-1 conjugate F131-LD038; F131-038
Binder B2 has a Kd [1] of 84.4 nM, a koff [1] of 0.0813 s⁻¹ and a kon [1] of 963000 M⁻¹ s⁻¹. For the same binder, the Kd [2] was 4.79 nM, the koff [2] was 0.00121 s⁻¹ and the kon [2] was 252000 M⁻¹ s⁻¹. The Kd [3] was 84.4 nM, the koff [3] was 0.0813 s⁻¹ and the kon [3] was 963000 M⁻¹ s⁻¹. It also gave a Kd [4] of 4.79 nM, a koff [4] of 0.00121 s⁻¹ and a kon [4] of 252000 M⁻¹ s⁻¹. For the same binder, the Response [5] was 0.0243, the Response [6] was 0.201 and the Kd [7] was 2870 nM. It also gave a koff [7] of 0.266 s⁻¹, a kon [7] of 92600 M⁻¹ s⁻¹ and a Kd [8] of 2870 nM. For the same binder, the koff [8] was 0.266 s⁻¹, the kon [8] was 92600 M⁻¹ s⁻¹ and the Response [9] was -0.00393. It also gave a Kd [10] of 8.82 nM, a koff [10] of 0.0016 s⁻¹ and a kon [10] of 181000 M⁻¹ s⁻¹. The Response [11] was 0.0125, the Response [12] was 0.186 and the Response [13] was 0.205. It also gave a Response [14] of 0.0041, a Response [15] of 0.0084 and a Kd [16] of 8.82 nM. For the same binder, the koff [16] was 0.0016 s⁻¹, the kon [16] was 181000 M⁻¹ s⁻¹ and the Kd [17] was 4.8 nM. It also gave a koff [17] of 0.00107 s⁻¹, a kon [17] of 224000 M⁻¹ s⁻¹ and a Response [18] of 0.0225. For the same binder, the Response [19] was 0.0342, the Kd [20] was 84.4 nM and the koff [20] was 0.0813 s⁻¹. For the same binder, the kon [20] was 963000 M⁻¹ s⁻¹, the Kd [21] was 4.79 nM and the koff [21] was 0.00121 s⁻¹. For the same binder, the kon [21] was 252000 M⁻¹ s⁻¹, the koff [22] was 0.233 s⁻¹ and the koff [23] was 0.233 s⁻¹.
